Assay results: paper PMC9817077, “Simple, Reliable Protocol for High-Yield Solubilization of Seedless Amyloid-β Monomer” (ACS Chemical Neuroscience, 2022)

What was measured:
[1] = cited from earlier work
Description: The concentration dependence is significant as it reflects the ... || The nature and reaction order of the dominant processes responsible for generating fibrils can be inferred from the scaling exponent γ, which relates the polymerization half-time to the initial monomer concentration, τhalf ∝ m0^γ. If secondary processes are negligible so that primary nucleation dominates, then γ = −nc/2, where nc is the effective order of primary nucleation.[91],[92] If most new fibrils are formed by fragmentation of existing fibrils, then γ = −1/2.[88],[89]

[2] = Negative-stain electron microscopy (NS-EM); assay type: physicochemical; details: 4 μM
Method: To perform a further test for the presence of seeds, and determine whether the detected oligomers affected the self-assembly kinetics, Aβ(1-42) samples were purified by SEC, and their self-assembly kinetics were compared to those of unpurified samples. In summary, following the protocol used by Hellstrand et al.,[39] […] The fraction eluting from 13.6 to 14.6 min (at 1 mL/min) was collected on ice, diluted variably (60, 80, or 100%, i.e., undiluted) in the elution buffer to give a range of concentrations, supplemented with ThT from a concentrated stock, and used in ThT assays. This purification procedure was repeated several times with reproducible results, and a representative elugram is shown in Figure 6a. The UV absorbance and RI elugrams are very similar to those previously reported for in-house recombinant peptide purified according to the same protocol,[39] and the peak at ∼14 min has already been identified as the monomer. […]
The resulting sample was deposited on grids immediately, or after incubation for 1 h in a 96-well plate treated with a PEG-like low-binding surface (Corning 3881, NY), at 37 °C. […] Micrographs were recorded with a 1024 × 1024 px Gatan CCD camera, and images were analyzed using FIJI.[100],[101]

[3] = LC–MS check for chemical modification at high pH; assay type: physicochemical; details: 50 mM NaOH
[4] = fluorescence-based assays, cited from earlier work
Method: Aβ samples that are stored in a lyophilized form are often re-solubilized by treatment with a dilute base such as 1–10 mM NaOH or 0.02–1% NH4OH.[41],[46],[48],[53],[56],[57] These treatments would be expected to give a pH of 10.6–12.0, in the absence of any partial neutralization of the solvent. […] In addition, many st ...

[5] = SEC-MALS purification and analysis on Superdex 75; assay type: physicochemical
Method: To perform a further test for the presence of seeds, and determine whether the detected oligomers affected the self-assembly kinetics, Aβ(1-42) samples were purified by SEC, and their self-assembly kinetics were compared to those of unpurified samples. In summary, following the protocol used by Hellstrand et al.,[39] […] The fraction eluting from 13.6 to 14.6 min (at 1 mL/min) was collected on ice, diluted variably (60, 80, or 100%, i.e., undiluted) in the elution buffer to give a range of concentrations, supplemented with ThT from a concentrated stock, and used in ThT assays. This purification procedure was repeated several times with reproducible results, and a representative elugram is shown in Figure 6a. The UV absorbance and RI elugrams are very similar to those previously reported for in-house recombinant peptide purified according to the same protocol,[39] and the peak at ∼14 min has already been identified as the monomer. MALS analysis of the ROI from 13.6 to 14.6 min was challenging, as the very weak scattering signal meant that the Mw estimates were particularly sensitive to baseline subtraction errors. Nonetheless, the average Mw value of this ROI across three concordant replicates was 6460 ± 712 Da, where the error margins represent one standard deviation, consistent with the peak containing mostly monomer with a small but significant amount of contaminating oligomer. […] Samples were analyzed and purified in small batches using an analytical Superdex 75 column (GE Healthcare) equilibrated in 20 mM sodium phosphate buffer (pH 8) with 200 μM EDTA and 1 mM NaN3. The column was run with the TIP pump from the AF4 system (Postnova Analytics, Landsberg am Lech, Germany), and in-line UV (280 nm; Shimadzu, U.K.), MALS (Postnova Analytics, Landsberg am Lech, Germany), and RI (Postnova Analytics, Landsberg am Lech, Germany) detectors. The RI detector was purged following equilibration, and the UV and RI detectors were then zeroed. The sample was injected, with an injection volume of 50 μL, and run at 1.0 mL/min for 35 min. Between sample runs, blanks consisting of the same solvent without the Aβ(1-42) were loaded to check that the column was clean and to allow blank subtraction of the detector signals. Data processing and estimation of sample concentration, molecular weight, and recovery were carried out in the AF2000 Control software (Postnova Analytics, Landsberg am Lech, Germany), with final data processing in GraphPad Prism version 8.3.0. For preparative runs, the sample was collected at the end. […] Eluted Aβ was mixed and split into three aliquots; these were then diluted to 60, 80, or 100% (i.e., undiluted) their concentration in the same elution buffer and supplemented with 20 μM ThT from a 2 mM stock, as described in Hellstrand et al.[39] […]

For “Aβ(1-42): Ultrapure recombinant Aβ(1-42) purchased from rPeptide, lyophilized from HFIP; disordered amyloid-forming peptide”, the “scaling exponent γ” value ([1]; high-quality in-house recombinant preparations, same experimental conditions) is given as “≈ −1.3”, the “fibrillization half-time τhalf” value ([1]; in-house recombinant preparations, ref Silvers et al. 75) is given as “≈ 2000 s” and the “fibrillar species by NS-EM immediately after dilution” value ([2]; 50 mM NaOH sample diluted into pre-adjusted fibrillization buffer pH 8) is given as “did not reveal any fibrillar species”. The “fibrillar species by NS-EM after incubation” value ([2]; ∼1 h under fibrillization conditions, 37 °C, early growth phase) was “fibrils were observed”, the “difference between mass spectra of samples sonicated for 5 and 30 min” value [3] was “no obvious difference” and the “pH threshold for complete elimination of self-assembly” value [4] was 11.0–12.0 pH. For the same substance, the “approximate timescale of limited aggregation” value ([4]; pH 11.0) was “several hundred seconds”, the “average Mw of the SEC ROI from 13.6 to 14.6 min” value ([5]; 50 mM NaOH sample, Superdex 75, 20 mM sodium phosphate pH 8, 200 μM EDTA, 1 mM NaN3, 1 mL/min, three concordant replicates, ± SD) was 6460 ± 712 Da and the “total mass of Aβ(1-42) in the fraction collected from 13.6 to 14.6 min” value ([5]; 50 μL of 1 mg/mL injected, Superdex 75, pH 8) was 28.4 ± 7.13 µg. The “concentration of the collected monomer fraction” value ([5]; fraction 13.6–14.6 min) was 6.29 µM and the “recovery in the collected monomer fraction” value ([5]; fraction 13.6–14.6 min, 50 μL of 1 mg/mL injected) was 56.8 % of the injected mass.
